# From US20060024308A1
# Experiments:
# human TNF-α (human) [1] = target: human TNF-α (human) (UniProt P01375)
# human TNF-α (human) [2] = target: human TNF-α (human) (UniProt P01375); experiment: cell-based or functional assay
# Chain of human TNF-α (human) (P01375 77-233 limits assumed): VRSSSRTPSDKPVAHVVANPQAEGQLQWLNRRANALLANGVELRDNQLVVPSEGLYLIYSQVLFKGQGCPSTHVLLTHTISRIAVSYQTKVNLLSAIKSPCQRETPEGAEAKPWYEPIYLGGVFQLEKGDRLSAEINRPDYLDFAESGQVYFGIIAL
substance,measurement,setting,value
Humira (IgG1) (antibody),"ND50 (L929 cell survival, neutralisation of TNF-α cytotoxicity)",human TNF-α (human) [1],28 pM
same,"Average IC50, neutralization of TNF-α cytotoxicity on L929 cells",human TNF-α (human) [2],0.023 nM
